From patent KR20130126543A (dated 2013)

T1: IL-6R-Fc 항원 (human, UniProt P08887 20-365, limits assumed)
T1 construct: domain: IL-6R full domain; Made in-house as IL-6R-Fc; also called IL-6R full; IL-6R full domain인 단백질; not shown: Fc part (vector pYK 604)
T1 sequence (looked up): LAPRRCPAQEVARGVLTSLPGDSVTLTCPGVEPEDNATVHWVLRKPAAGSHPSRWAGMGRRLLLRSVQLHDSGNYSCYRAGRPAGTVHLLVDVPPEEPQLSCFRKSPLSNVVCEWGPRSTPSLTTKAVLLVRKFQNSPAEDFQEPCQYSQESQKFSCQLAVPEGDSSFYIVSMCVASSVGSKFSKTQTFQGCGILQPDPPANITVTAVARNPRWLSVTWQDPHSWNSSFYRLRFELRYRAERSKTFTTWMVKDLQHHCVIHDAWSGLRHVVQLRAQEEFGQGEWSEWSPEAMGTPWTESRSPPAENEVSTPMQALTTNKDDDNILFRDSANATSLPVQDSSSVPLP


Legend:
[1] = target: T1, IL-6R-Fc 항원; assay: assay on IL-6R not described for the bispecific protein
[2] = target: T1, IL-6R-Fc 항원; assay: ELISA titration on coated IL-6R; fit R2 0.98
[3] = target: T1, IL-6R-Fc 항원; assay: ELISA titration on coated IL-6R (repeats the 3rd table)
[4] = target: T1, IL-6R-Fc 항원; assay: ELISA; IL-6R coated 100 ng/well; IgG at 25 nM; anti-Fab-HRP
[5] = target: T1, IL-6R-Fc 항원; assay: ELISA; IL-6R coated 100 ng/well; IgG at 50 nM; anti-Fab-HRP
[6] = target: T1, IL-6R-Fc 항원; assay: ELISA; IL-6R coated 100 ng/well; IgG at 12.5 nM; anti-Fab-HRP
[7] = target: T1, IL-6R-Fc 항원; assay: ELISA; IL-6R coated 100 ng/well; IgG at 6.25 nM; anti-Fab-HRP
[8] = target: T1, IL-6R-Fc 항원; assay: ELISA; IL-6R coated 100 ng/well; IgG at 3.125 nM; anti-Fab-HRP
[9] = target: T1, IL-6R-Fc 항원; assay: ELISA; IL-6R coated 100 ng/well; IgG at 1.5625 nM; anti-Fab-HRP
[10] = target: T1, IL-6R-Fc 항원; assay: ELISA; IL-6R coated 100 ng/well; IgG at 0.02441 nM; anti-Fab-HRP
[11] = target: T1, IL-6R-Fc 항원; assay: ELISA; IL-6R coated 100 ng/well; IgG at 0.04883 nM; anti-Fab-HRP
[12] = target: T1, IL-6R-Fc 항원; assay: ELISA; IL-6R coated 100 ng/well; IgG at 0.09766 nM; anti-Fab-HRP
[13] = target: T1, IL-6R-Fc 항원; assay: ELISA; IL-6R coated 100 ng/well; IgG at 0.19531 nM; anti-Fab-HRP
[14] = target: T1, IL-6R-Fc 항원; assay: ELISA; IL-6R coated 100 ng/well; IgG at 0.39063 nM; anti-Fab-HRP
[15] = target: T1, IL-6R-Fc 항원; assay: ELISA; IL-6R coated 100 ng/well; IgG at 0.78125 nM; anti-Fab-HRP
[16] = target: T2, a-Myc; assay: mono phage ELISA; a-Myc coated 100 ng/well; anti-M13-HRP
T2 construct: Coated at 100 ng/well in the phage ELISAs

[17] = target: T1, IL-6R-Fc 항원; assay: ELISA titration on coated IL-6R; fit R2 0.8
[18] = target: T1, IL-6R-Fc 항원; assay: ELISA titration on coated IL-6R; fit R2 0.75
[19] = target: T1, IL-6R-Fc 항원; assay: ELISA titration on coated IL-6R; fit R2 0.93
[20] = target: T3, TNF-α (UniProt P01375 77-233); assay: ELISA; TNF-α coated 100 ng/well; protein from 100 nM in 1/4 steps; anti-Human Fc-HRP
T3 construct: Coated at 100 ng/well; also called TNF-a; TNF-α 리간드
T3 sequence (P01375 77-233 limits assumed): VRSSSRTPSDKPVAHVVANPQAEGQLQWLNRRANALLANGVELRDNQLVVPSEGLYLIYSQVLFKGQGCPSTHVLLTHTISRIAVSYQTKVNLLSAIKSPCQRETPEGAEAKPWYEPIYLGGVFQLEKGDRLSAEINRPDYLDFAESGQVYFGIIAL

Kd [3] [nM] | OD 490 nm [4] [OD490] | OD 490 nm [5] [OD490] | OD 490 nm [6] [OD490] | OD 490 nm [7] [OD490] | OD 490 nm [8] [OD490] | OD 490 nm [9] [OD490] | OD 490 nm [10] [OD490] | OD 490 nm [11] [OD490] | OD 490 nm [12] [OD490] | OD 490 nm [13] [OD490] | OD 490 nm [14] [OD490] | OD 490 nm [15] [OD490] | OD 490 nm (a-myc) [16] [OD490] | Binder | also measured
– | – | – | – | – | – | – | – | – | – | – | – | – | – | A7/TNFR2 (bispecific antibody, also called Anti-IL-6R/TNFR2; Dual) heavy: not shown light: DVHSQLVLTQPPSVSGAPGQRVTISCTGTNSNIGAGYDVHWYQQVPGTTPKLLIYGNTNRPSGVPDRFSGSKSGTSASLAITGLQAEDGGDYYCQSFDSSLTGSVFGTGTKVTVL | Kd [1]: 2.3 nM
0.35 | 2.89 | 2.99 | 2.92 | 2.71 | 2.72 | 2.43 | 0.535 | 0.584 | 0.743 | 1.01 | 1.41 | 1.9 | – | 항 IL-6R 단클론 항체 F2 (antibody, V domains shown) VH: QVQLVESGAEVKKPGASVKVSCKASGYTFTNYYMHWVRQAPGQGLEWMGIINPSGGNTGYAQKFQGRVTMTRDMSTSTAYMELSSLRSEDTAVYYCARGLPWGENGLDVWGQGTTVTVSS VL: SQLVLTQPSSVSGAPGQTVTISCTGSSSNIGAGYDVHWYQQLPGTAPKVLIYGDSDRPSGVPDRFSGSKSATSASLAITGLQAEDEADYYCQSYDSSLSAYVFGTGTKVTVL | Kd [2]: 0.35 nM
– | – | – | – | – | – | – | – | – | – | – | – | – | 0.287 | 모노 파아지 클론 F2 (scFv, V domains shown, also called F02) VH: QVQLVESGAEVKKPGASVKVSCKASGYTFTNYYMHWVRQAPGQGLEWMGIINPSGGNTGYAQKFQGRVTMTRDMSTSTAYMELSSLRSEDTAVYYCARGLPWGENGLDVWGQGTTVTVSS VL: SQLVLTQPSSVSGAPGQTVTISCTGSSSNIGAGYDVHWYQQLPGTAPKVLIYGDSDRPSGVPDRFSGSKSATSASLAITGLQAEDEADYYCQSYDSSLSAYVFGTGTKVTVL | –
7.5 | 1.94 | 2.38 | 1.47 | 0.981 | 0.719 | 0.584 | 0.449 | 0.451 | 0.45 | 0.469 | 0.473 | 0.479 | – | 항 IL-6R 단클론 항체 D2 (antibody, V domains shown) VH: QVQLVESGAEVKKPGSSVKVSCKGSGDTFPNYAINWVRQAPGQGPEWMGRIIPMLGTSDYAEKFQGRVTITADKSTNTAYMGLNSLRSEDTAVYYCVKGPRYYGTDSYYLEKWGQGTMVTVSS VL: SQLVLTQPPSVSGAPGQTVTISCTGPTIGAGYDVHWYQQLPGAAPKLLIYGNLNRPSGVPDRFSGSKSGTSASLAITDLQAEDEADYYCHTYDSSLSGSWVFGGGTKLTVL | Kd [17]: 7.5 nM
– | – | – | – | – | – | – | – | – | – | – | – | – | 0.303 | 모노 파아지 클론 D2 (scFv, V domains shown, also called D02) VH: QVQLVESGAEVKKPGSSVKVSCKGSGDTFPNYAINWVRQAPGQGPEWMGRIIPMLGTSDYAEKFQGRVTITADKSTNTAYMGLNSLRSEDTAVYYCVKGPRYYGTDSYYLEKWGQGTMVTVSS VL: SQLVLTQPPSVSGAPGQTVTISCTGPTIGAGYDVHWYQQLPGAAPKLLIYGNLNRPSGVPDRFSGSKSGTSASLAITDLQAEDEADYYCHTYDSSLSGSWVFGGGTKLTVL | –
– | – | – | – | – | – | – | – | – | – | – | – | – | 0.113 | 모노 파아지 클론 B10 (scFv, V domains shown, also called 6B10) VH: QVQLVESGGGLVQPGGSLRLSCAASGFIFDDYAMFWVRQVPGKGLEWVAGINWNGNGIGYGDSVRGRFIISRDNARNSLDLQMNSLRAEDTAVYYCARPSLYGGNSEFDLWGQGTLVTVSS VL: SQLVLTQPPSVSGAPGQTVTISCTGPTIGAGYDVHWYQQLPGAAPKLLIYGNLNRPSGVPDRFSGSKSGTSASLAITDLQAEDEADYYCHTYDSSLSGSWVFGGGTKLTVL | –
4.3 | 1.78 | 2.09 | 1.39 | 1.04 | 0.761 | 0.607 | 0.468 | 0.451 | 0.462 | 0.429 | 0.476 | 0.5 | – | 항 IL-6R 단클론 항체 B10 (antibody, V domains shown) VH: QVQLVESGGGLVQPGGSLRLSCAASGFIFDDYAMFWVRQVPGKGLEWVAGINWNGNGIGYGDSVRGRFIISRDNARNSLDLQMNSLRAEDTAVYYCARPSLYGGNSEFDLWGQGTLVTVSS VL: SQLVLTQPPSVSGAPGQTVTISCTGPTIGAGYDVHWYQQLPGAAPKLLIYGNLNRPSGVPDRFSGSKSGTSASLAITDLQAEDEADYYCHTYDSSLSGSWVFGGGTKLTVL | Kd [18]: 4.3 nM
2.3 | 2.84 | 3.1 | 2.58 | 2.13 | 1.64 | 1.17 | 0.514 | 0.498 | 0.497 | 0.546 | 0.618 | 0.782 | – | 항 IL-6R 단클론 항체 A7 (antibody, V domains shown) VH: QMQLVESGGGLVQPGTSLRLSCAASGFKFEDYAMHWVRQAPGKGLEWVSGVSWNSGTIAYVDSVKGRFTISRDNAKNSLYLQMNSLRAEDTAVYYCARDFTYFYESSGYYAFDLWGQGTMVTVSS VL: SQLVLTQPPSVSGAPGQRVTISCTGTNSNIGAGYDVHWYQQVPGTTPKLLIYGNTNRPSGVPDRFSGSKSGTSASLAITGLQAEDGGDYYCQSFDSSLTGSVFGTGTKVTVL | Kd [19]: 2.3 nM
– | – | – | – | – | – | – | – | – | – | – | – | – | 0.0797 | 모노 파아지 클론 A7 (scFv, V domains shown, also called A07) VH: QMQLVESGGGLVQPGTSLRLSCAASGFKFEDYAMHWVRQAPGKGLEWVSGVSWNSGTIAYVDSVKGRFTISRDNAKNSLYLQMNSLRAEDTAVYYCARDFTYFYESSGYYAFDLWGQGTMVTVSS VL: SQLVLTQPPSVSGAPGQRVTISCTGTNSNIGAGYDVHWYQQVPGTTPKLLIYGNTNRPSGVPDRFSGSKSGTSASLAITGLQAEDGGDYYCQSFDSSLTGSVFGTGTKVTVL | –
– | – | – | – | – | – | – | – | – | – | – | – | – | – | B10/TNFR2 (bispecific antibody, also called Anti-IL-6R/TNFR2) heavy: not shown light: DVHSQLVLTQPPSVSGAPGQTVTISCTGPTIGAGYDVHWYQQLPGAAPKLLIYGNLNRPSGVPDRFSGSKSGTSASLAITDLQAEDEADYYCHTYDSSLSGSWVFGGGTKLTVL | Kd [1]: 4.3 nM; Kd [20]: 0.72 nM
